The assay concerns the target natural cellular receptor for adenovirus on 293 human cells (human). Put plainly: cell-based or functional assay.

Regarding “native Ad5 fiber carried by the recombinant AdLacZ virus (from UniProt P11818 1-581)”, the degree of inhibition of the infection of 293-cells with AdLacZ by recombinant Ad5 knob at 100 µg/ml came to 95%.

The values are drawn from US7560527.
